Experiments:
Type in all cases: biochemical
Na-caseinate = experiment: Degree of hydrolysis of pre-hydrolysed Na-caseinate; conditions: Casein, 50° C., 20 hr
Protocol: (§1) The degree of hydrolyses (DH) describes the relative amount of cleaved peptides bounds compared to an acid hydrolyses of the same amount of protein conducted e.g. in 6 M HCL at ˜120° C. for ˜24 h. The higher the DH can therefore be applied to assess the efficiency of amino acid liberation of a general PepN such as a PepN 1 or a PepN 2 type. The cell free culture broth was concentrated (10 kDa cut-off, Sartorius, Göttingen, Germany) and desalted applying a disposal desalting column (PD10, GE, Munchen, Germany) as described by the manufacturer. As substrates were pre-hydrolysed 10% (w/w) Na-caseinate (DMK, Germany), whey protein isolate (WPI; Arla, Viby, Denmark), soy protein isolate (SPI; SUPRO® 760, DuPont, Brabrand, Denmark) and gluten suspensions were applied. The pre-hydrolysis was conducted with 1% (w/wprotein) of FOODPRO® Alkaline Protease, 1% (w/wprotein) FOODPRO® PNL for the Na-Caseinate, the WPI as well as the SPI suspension. All pre-hydrolyses were conducted at 55° C. for 18 h followed by an inactivation step at 95° C. for 20 min. Each applied PepN 2 has been inactivated at 95 C for 15 min as a control of the elimination of any carryover of amino acids from the culture broth to the final hydrolyses as well as for the sufficient inactivation of the applied endopeptidases. The hydrolyses were conducted in a 96-well micro titer plate format and consisted of 150 μL of the pre-hydrolyzed protein suspension combined with 50 μL of a PepN 2 stock solution as indicated in Table 1 below. The hydrolyses were conducted at 50° C. for 20 hr, subsequently, the hydrolysis were stopped by the addition of 20 μL 2 M TCA (Trichloroacetic acid, Sigma-Aldrich, Schnelldorf, Germany). The efficiency of the amino acid liberation of the PepN 2 types from Neosartorya fischeri and Aspergillus clavatus can be seen in Table 1 (B) and (A). […] For the gluten hydrolyses, an increased DH was noticed in the protein range from 0.02-0.3 mg/mL PepN 2.

[1] = tested on: peptide WHWLQLKPGQPMY (SEQ ID NO:26); experiment: Hydrolysis of proline containing peptide, LC-MS; conditions: peptide 1 mg/mL, aminopeptidase 1 ug/mL, CPB-Buffer, 55° C.; FIG. 5-7
Protocol: The peptide […] (SEQ ID NO:26) was hydrolysed with TRI03 and TRI035. The peptide (1 mg/mL) was incubated with 1 ug/mL of the aminopeptidase in 20 mM CPB-Buffer (20 mM Citric acid, 20 mM Phosphate. 20 mM Boric acid) at 55° C. Aliquots (50 μL) were stopped with 50 rel 5% TFA at the indicated time points and subjected to LC-MS analysis.
Capillary LC-MS/MS analyses were performed using an Agilent 1100 LC system (Agilent Technologies) interfaced to a LTQ Orbitrap Classic hybrid mass spectrometer (Thermo Scientific, Bremen, Germany). Samples were loaded onto a 15 cm Phenomenix Jupiter 4μ Proteo 90A, C4 analytical column. Separation was performed at a flow rate of 16 μL/min using a 10 min gradient of 0-40% Solvent B H2O/CH3CN/HCOOH (50/950/0.65 v/v/v) into the IONMAX® ion source (Thermo Scientific, San Jose). The LTQ Orbitrap Classic instrument was operated in a data-dependent MS/MS mode. The peptide masses were measured by the Orbitrap (MS scans were obtained with a resolution of 60 000 at m/z 400), and up to 2 of the most intense peptide m/z were selected and subjected to fragmentation using CID in the linear ion trap (LTQ). Dynamic exclusion was enabled with a list size of 500 masses, duration of 40 s, and an exclusion mass width of ±10 ppm relative to masses on the list.
The RAW files were accessed with the program Skyline 2.6.0.7176 (MacLean, B., et al., “Skyline: an open source document editor for creating and analyzing targeted proteomics experiments”, Bioinformatics, 2010, 26(7): p. 966-8) which uses the MS1 intensities to build chromatograms (Schilling, B., et al., “Platform-independent and label-free quantitation of proteomic data using MS1 extracted ion chromatograms in skyline: application to protein acetylation and phosphorylation”, Mol Cell Proteomics, 2012. 11(5): p. 202-14). The precursor isotopic import filter was set to a count of three, (M, M+1, and M+2) at a resolution of 60,000 and the most intense charge state was used. Peptide sequences of the substrate as well as cleavage products were typed into Skyline and intensities were calculated in each sample. […]

gluten = experiment: Degree of hydrolysis of pre-hydrolysed gluten; conditions: 50° C., 20 hr
Protocol: as §1

[2] = tested on: soy protein isolate (SPI); experiment: Degree of hydrolysis of pre-hydrolysed soy protein isolate; conditions: 50° C., 20 hr
Protocol: as §1

[3] = Product inhibition of H-Ala-pNA hydrolysis by amino acid inhibitor mix; conditions: pH 9.0, 30° C.
Protocol: Sigma cat # D2650). […] […] and proline were dissolved in DMSO. All other amino acids were dissolved in buffer. […] The reaction was started by adding 20 μL substrate. Only one substrate concentration was used per plate.

[4] = tested on: whey protein isolate (WPI); experiment: Degree of hydrolysis of pre-hydrolysed whey protein isolate; conditions: 50° C., 20 hr
Protocol: as §1

[5] = inactivated enzyme at the highest conc.

B1: TRI031: fungal aminopeptidase type-2 (pepN_2), NCBI XP_001258675 from Neosartorya fischeri NRRL 181, expressed in Trichoderma reesei (protein)
chain: MQTFGAFLVSFLAASGLAAANGPGWDWKPPVHPKVLPQMIHLWDLMHGAQKLEDFAYAYPERNRVFGGPAHEDTVNYLYRELKKTGYYDVYKQPQVHQWTRADQALTVDGKSYVATTMTYSPSVNVTAPLAVVNNLGCVESDYPADLKGKIALVSRGECPFATKSVLSAKAGAAAALVYNNIEGSMAGTLGGPTSELGPYAPIAGISLADGQALIQMIQAGTVTANLWIDSKVENRTTYNVIAQTKGGDPNNVVALGGHTDSVEAGPGINDDGSGIISNLVVAKALTRFSVKNAVRFCFWTAEEFGLLGSSYYVNSLNATEKAKIRLYLNFDMIASPNYALMIYDGDGSAFNLTGPAGSAQIERLFEDYYKSIRKPFVPTEFNGRSDYEAFILNGIPAGGIFTGAEAIKTEEQAKLFGGQAGVALDANYHAKGDNMTNLNREAFLINSKATAFAVATYANSLDSIPSRNMSTVVKRSQLEQAKKSTPHTHTGGTGCYKDRVEQ
modifications: Synthetic peptide with leader sequence
notes: fungal aminopeptidase type-2 (pepN_2), NCBI XP_001258675 from Neosartorya fischeri NRRL 181, expressed in Trichoderma reesei
Na-caseinate; PepN 2 stock 0.02 mg/mL
  Degree of hydrolysis: 14%
Na-caseinate; PepN 2 stock 0.03 mg/mL
  Degree of hydrolysis: 15%
Na-caseinate; PepN 2 stock 0.04 mg/mL
  Degree of hydrolysis: 16%
Na-caseinate; PepN 2 stock 0.05 mg/mL
  Degree of hydrolysis: 20%
Na-caseinate; PepN 2 stock 0.1 mg/mL
  Degree of hydrolysis: 19%
Na-caseinate; PepN 2 stock 0.15 mg/mL
  Degree of hydrolysis: 21%
Na-caseinate; PepN 2 stock 0.2 mg/mL
  Degree of hydrolysis: 23%
Na-caseinate; PepN 2 stock 0.25 mg/mL
  Degree of hydrolysis: 22%
Na-caseinate; PepN 2 stock 0.3 mg/mL
  Degree of hydrolysis: 24%
Na-caseinate; PepN 2 stock 0.35 mg/mL
  Degree of hydrolysis: 24%
Na-caseinate; [5]
  Degree of hydrolysis: 8%
[1]
  hydrolysis of WHWLQLKPGQPMY to KPGQPMY and further down to QPMY: can hydrolyze
gluten; PepN 2 stock 0.02 mg/mL
  Degree of hydrolysis: 10%
gluten; PepN 2 stock 0.03 mg/mL
  Degree of hydrolysis: 13%
gluten; PepN 2 stock 0.04 mg/mL
  Degree of hydrolysis: 15%
gluten; PepN 2 stock 0.05 mg/mL
  Degree of hydrolysis: 14%
gluten; PepN 2 stock 0.1 mg/mL
  Degree of hydrolysis: 17%
gluten; PepN 2 stock 0.15 mg/mL
  Degree of hydrolysis: 18%
gluten; PepN 2 stock 0.2 mg/mL
  Degree of hydrolysis: 19%
gluten; PepN 2 stock 0.25 mg/mL
  Degree of hydrolysis: 19%
gluten; PepN 2 stock 0.3 mg/mL
  Degree of hydrolysis: 21%
gluten; PepN 2 stock 0.35 mg/mL
  Degree of hydrolysis: 20%
gluten; [5]
  Degree of hydrolysis: 4%
[2]; PepN 2 stock 0.02 mg/mL
  Degree of hydrolysis: 11%
[2]; PepN 2 stock 0.03 mg/mL
  Degree of hydrolysis: 13%
[2]; PepN 2 stock 0.04 mg/mL
  Degree of hydrolysis: 14%
[2]; PepN 2 stock 0.05 mg/mL
  Degree of hydrolysis: 15%
[2]; PepN 2 stock 0.1 mg/mL
  Degree of hydrolysis: 17%
[2]; PepN 2 stock 0.15 mg/mL
  Degree of hydrolysis: 18%
[2]; PepN 2 stock 0.2 mg/mL
  Degree of hydrolysis: 19%
[2]; PepN 2 stock 0.25 mg/mL
  Degree of hydrolysis: 19%
[2]; PepN 2 stock 0.3 mg/mL
  Degree of hydrolysis: 19%
[2]; PepN 2 stock 0.35 mg/mL
  Degree of hydrolysis: 22%
[2]; [5]
  Degree of hydrolysis: 6%
[3]
  product inhibition compared to TRI063 from A. oryzae: less inhibited by product
[4]; PepN 2 stock 0.02 mg/mL
  Degree of hydrolysis: 17%
[4]; PepN 2 stock 0.03 mg/mL
  Degree of hydrolysis: 19%
[4]; PepN 2 stock 0.04 mg/mL
  Degree of hydrolysis: 19%
[4]; PepN 2 stock 0.05 mg/mL
  Degree of hydrolysis: 21%
[4]; PepN 2 stock 0.1 mg/mL
  Degree of hydrolysis: 23%
[4]; PepN 2 stock 0.15 mg/mL
  Degree of hydrolysis: 28%
[4]; PepN 2 stock 0.2 mg/mL
  Degree of hydrolysis: 24%
[4]; PepN 2 stock 0.25 mg/mL
  Degree of hydrolysis: 26%
[4]; PepN 2 stock 0.3 mg/mL
  Degree of hydrolysis: 27%
[4]; PepN 2 stock 0.35 mg/mL
  Degree of hydrolysis: 29%
[4]; [5]
  Degree of hydrolysis: 8%
